From US20050256058A1
Numbered stars: 1 amine (or outer) side, 2 acyl side, 3 side chain; on linkers, the order of the positions; unused ones are H or OH. Square brackets hold non-standard residues; d marks the D form. * marks the point of attachment. CH═CH‑CON(CH2Ph)2 = O=C(/C=C/*)N(Cc1ccccc1)Cc1ccccc1; AAsp = aza-Asp, O=C(N(CC(=O)[*:3])N[*:1])[*:2]; CH═CH‑CON(CH3)CH2Ph = CN(Cc1ccccc1)C(=O)/C=C/*; CH═CH‑COOEt = CCOC(=O)/C=C/*; Cbz = O=C(OCc1ccccc1)*

B1: Cbz-Ile-Glu-Thr-AAsp-CH═CH-CON(CH2Ph)2 (peptide)
peptide: Cbz-IET[AAsp]-{CH═CH‑CON(CH2Ph)2}
SMILES: CC[C@H](C)[C@H](NC(=O)OCc1ccccc1)C(=O)N[C@@H](CCC(=O)O)C(=O)N[C@H](C(=O)NN(CC(=O)O)C(=O)/C=C/C(=O)N(Cc1ccccc1)Cc1ccccc1)[C@@H](C)O
B2: Cbz-Ile-Glu-Thr-AAsp-CH═CH-COOEt (peptide)
peptide: Cbz-IET[AAsp]-{CH═CH‑COOEt}
SMILES: CCOC(=O)/C=C/C(=O)N(CC(=O)O)NC(=O)[C@@H](NC(=O)[C@H](CCC(=O)O)NC(=O)[C@@H](NC(=O)OCc1ccccc1)[C@@H](C)CC)[C@@H](C)O
B3: Cbz-Ile-Glu-Thr-AAsp-CH═CH-CON(CH3)CH2Ph (peptide)
peptide: Cbz-IET[AAsp]-{CH═CH‑CON(CH3)CH2Ph}
SMILES: CC[C@H](C)[C@H](NC(=O)OCc1ccccc1)C(=O)N[C@@H](CCC(=O)O)C(=O)N[C@H](C(=O)NN(CC(=O)O)C(=O)/C=C/C(=O)N(C)Cc1ccccc1)[C@@H](C)O

Each binder was assayed against T1, Caspase-2 (UniProt P42575) (assay: cell-based or functional assay).
T1 sequence (looked up): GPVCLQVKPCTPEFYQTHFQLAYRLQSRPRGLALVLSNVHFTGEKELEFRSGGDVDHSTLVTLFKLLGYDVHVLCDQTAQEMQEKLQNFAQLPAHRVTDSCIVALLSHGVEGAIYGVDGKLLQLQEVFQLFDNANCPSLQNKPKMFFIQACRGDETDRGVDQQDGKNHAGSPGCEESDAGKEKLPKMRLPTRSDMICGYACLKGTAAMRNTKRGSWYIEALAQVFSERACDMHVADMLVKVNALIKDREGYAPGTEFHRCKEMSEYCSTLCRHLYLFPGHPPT

Binder	k2 [M⁻¹ s⁻¹]
Cbz-IET[AAsp]-{CH═CH‑CONHCH2CH2Ph} [Cbz-Ile-Glu-Thr-AAsp-CH═CH-CONHCH2CH2Ph]	30
B1	76
Cbz-IET[AAsp]-{CH═CH‑CONHPh} [Cbz-Ile-Glu-Thr-AAsp-CH═CH-CONHPh]	365
B2	300
Cbz-IET[AAsp]-{CH═CH‑CONHCH2Ph} [Cbz-Ile-Glu-Thr-AAsp-CH═CH-CONHCH2Ph]	15
B3	95

The binders below were run against Caspase-9 (UniProt P55211) (assay: cell-based or functional assay).
Caspase-9, sequence (P55211 whole entry): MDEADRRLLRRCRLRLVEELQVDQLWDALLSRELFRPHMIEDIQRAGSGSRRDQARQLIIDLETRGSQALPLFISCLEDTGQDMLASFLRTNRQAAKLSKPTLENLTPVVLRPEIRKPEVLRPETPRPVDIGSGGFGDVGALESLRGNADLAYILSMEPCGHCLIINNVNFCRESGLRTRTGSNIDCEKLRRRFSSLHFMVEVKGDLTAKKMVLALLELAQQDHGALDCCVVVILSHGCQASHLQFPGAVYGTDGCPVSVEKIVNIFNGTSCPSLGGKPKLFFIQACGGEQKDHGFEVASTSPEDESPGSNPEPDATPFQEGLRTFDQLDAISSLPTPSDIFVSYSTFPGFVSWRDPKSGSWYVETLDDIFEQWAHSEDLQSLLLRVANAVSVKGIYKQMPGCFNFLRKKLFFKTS

Binder	k2 [M⁻¹ s⁻¹]
Cbz-IET[AAsp]-{CH═CH‑CONHCH2CH2Ph} [Cbz-Ile-Glu-Thr-AAsp-CH═CH-CONHCH2CH2Ph]	615
B1	1930
Cbz-IET[AAsp]-{CH═CH‑CONHPh} [Cbz-Ile-Glu-Thr-AAsp-CH═CH-CONHPh]	940
Cbz-IET[AAsp]-{CH═CH‑CONHCH2Ph} [Cbz-Ile-Glu-Thr-AAsp-CH═CH-CONHCH2Ph]	440
B3	845

What follows are binders tested against T2, Caspase-6 (UniProt P55212) (assay: cell-based or functional assay).
T2 sequence (looked up): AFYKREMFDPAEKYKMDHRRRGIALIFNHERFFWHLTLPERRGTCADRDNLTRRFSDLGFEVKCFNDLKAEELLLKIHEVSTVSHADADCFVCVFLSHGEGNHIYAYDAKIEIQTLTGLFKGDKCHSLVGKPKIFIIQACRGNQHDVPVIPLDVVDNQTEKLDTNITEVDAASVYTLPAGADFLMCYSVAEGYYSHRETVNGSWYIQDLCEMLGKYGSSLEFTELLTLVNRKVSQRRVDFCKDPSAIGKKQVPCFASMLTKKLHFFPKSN

Binder	k2 [M⁻¹ s⁻¹]
Cbz-IET[AAsp]-{CH═CH‑CONHCH2CH2Ph} [Cbz-Ile-Glu-Thr-AAsp-CH═CH-CONHCH2CH2Ph]	18700
B1	83900
Cbz-IET[AAsp]-{CH═CH‑CONHPh} [Cbz-Ile-Glu-Thr-AAsp-CH═CH-CONHPh]	99200
B2	88700
Cbz-IET[AAsp]-{CH═CH‑CONHCH2Ph} [Cbz-Ile-Glu-Thr-AAsp-CH═CH-CONHCH2Ph]	16800
B3	45900

These binders were tested against T3, Caspase-7 (UniProt P55210) (assay: cell-based or functional assay).
T3 sequence (looked up): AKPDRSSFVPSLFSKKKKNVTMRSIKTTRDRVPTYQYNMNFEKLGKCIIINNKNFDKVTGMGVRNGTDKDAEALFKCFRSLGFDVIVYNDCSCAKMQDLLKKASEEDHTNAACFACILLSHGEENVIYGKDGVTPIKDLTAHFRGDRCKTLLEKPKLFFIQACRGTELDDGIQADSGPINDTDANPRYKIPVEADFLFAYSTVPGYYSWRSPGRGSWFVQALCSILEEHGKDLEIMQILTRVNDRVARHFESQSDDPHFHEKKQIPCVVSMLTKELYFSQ

Binder	k2 [M⁻¹ s⁻¹]
Cbz-IET[AAsp]-{CH═CH‑CONHCH2CH2Ph} [Cbz-Ile-Glu-Thr-AAsp-CH═CH-CONHCH2CH2Ph]	440
B1	1140
Cbz-IET[AAsp]-{CH═CH‑CONHPh} [Cbz-Ile-Glu-Thr-AAsp-CH═CH-CONHPh]	920
B2	530
Cbz-IET[AAsp]-{CH═CH‑CONHCH2Ph} [Cbz-Ile-Glu-Thr-AAsp-CH═CH-CONHCH2Ph]	100
B3	390

Each binder was assayed against T4, Caspase-3 (UniProt P42574) (assay: cell-based or functional assay).
T4 sequence (looked up): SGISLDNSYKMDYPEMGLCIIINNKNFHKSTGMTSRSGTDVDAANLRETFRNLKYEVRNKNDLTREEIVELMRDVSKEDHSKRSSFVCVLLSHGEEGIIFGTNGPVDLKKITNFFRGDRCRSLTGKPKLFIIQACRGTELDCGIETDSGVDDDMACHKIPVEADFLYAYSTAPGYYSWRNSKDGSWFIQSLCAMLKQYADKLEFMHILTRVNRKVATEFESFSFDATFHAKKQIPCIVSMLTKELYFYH

Binder	k2 [M⁻¹ s⁻¹]
Cbz-IET[AAsp]-{CH═CH‑CONHCH2CH2Ph} [Cbz-Ile-Glu-Thr-AAsp-CH═CH-CONHCH2CH2Ph]	4750
B1	9570
Cbz-IET[AAsp]-{CH═CH‑CONHPh} [Cbz-Ile-Glu-Thr-AAsp-CH═CH-CONHPh]	7030
B2	6740
Cbz-IET[AAsp]-{CH═CH‑CONHCH2Ph} [Cbz-Ile-Glu-Thr-AAsp-CH═CH-CONHCH2Ph]	2250
B3	6000

These binders were tested against T5, Caspase-10 (UniProt Q92851) (assay: cell-based or functional assay).
T5 sequence (looked up): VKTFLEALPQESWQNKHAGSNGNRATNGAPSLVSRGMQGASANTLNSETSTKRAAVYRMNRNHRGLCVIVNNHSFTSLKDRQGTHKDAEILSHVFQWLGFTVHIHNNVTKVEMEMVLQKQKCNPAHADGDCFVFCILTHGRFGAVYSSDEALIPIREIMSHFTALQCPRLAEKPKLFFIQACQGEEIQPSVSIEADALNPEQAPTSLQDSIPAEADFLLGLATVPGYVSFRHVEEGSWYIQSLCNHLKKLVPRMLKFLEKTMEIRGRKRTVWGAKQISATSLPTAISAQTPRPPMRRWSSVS

Binder	k2 [M⁻¹ s⁻¹]
Cbz-IET[AAsp]-{CH═CH‑CONHCH2CH2Ph} [Cbz-Ile-Glu-Thr-AAsp-CH═CH-CONHCH2CH2Ph]	8290
B1	7930
Cbz-IET[AAsp]-{CH═CH‑CONHPh} [Cbz-Ile-Glu-Thr-AAsp-CH═CH-CONHPh]	9210
B2	6900
Cbz-IET[AAsp]-{CH═CH‑CONHCH2Ph} [Cbz-Ile-Glu-Thr-AAsp-CH═CH-CONHCH2Ph]	503
B3	8500

What follows are binders tested against Caspase-8 (UniProt Q14790) (assay: cell-based or functional assay).
Caspase-8, sequence (Q14790 217-479 limits assumed): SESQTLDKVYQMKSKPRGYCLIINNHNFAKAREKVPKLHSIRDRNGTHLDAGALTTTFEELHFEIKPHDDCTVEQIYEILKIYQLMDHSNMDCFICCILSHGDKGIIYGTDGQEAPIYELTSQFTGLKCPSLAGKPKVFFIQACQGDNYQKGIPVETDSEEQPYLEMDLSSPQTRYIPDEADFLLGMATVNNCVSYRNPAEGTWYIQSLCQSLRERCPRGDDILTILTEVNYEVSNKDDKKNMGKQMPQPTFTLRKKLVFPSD

Binder	k2 [M⁻¹ s⁻¹]
Cbz-IET[AAsp]-{CH═CH‑CONHCH2CH2Ph} [Cbz-Ile-Glu-Thr-AAsp-CH═CH-CONHCH2CH2Ph]	71000
B1	39500
Cbz-IET[AAsp]-{CH═CH‑CONHPh} [Cbz-Ile-Glu-Thr-AAsp-CH═CH-CONHPh]	245000
B2	56500
Cbz-IET[AAsp]-{CH═CH‑CONHCH2Ph} [Cbz-Ile-Glu-Thr-AAsp-CH═CH-CONHCH2Ph]	61300
B3	59700
